From patent US20110200525A1 (published 2011) come the findings set out here.

As a reminder, the Kd is the concentration at which binding is half-saturated. A high value points to weaker binding. As usually defined, the koff is a measure of how fast the partners let go of each other. The low end stands for a long-lived complex, the high end for a short-lived complex. Usually kon stands for the second-order rate constant of association. A high value points to fast association.

Values joined by “and” are separate entries in the source; they are usually repeats but may differ in a detail not shown here. Equal values may be shown once.

Assay [1] deals with T1, human EGFRvIII (human, UniProt P00533 25-1210).
T1 construct: whole, on cells; Deletion mutant; also called EGFRvIII on NR6M cells; VIII mutant EGFR
Briefly: phage format; assay not given.

For assay [2], the target named is T2, human EGFR wild type (human, UniProt P00533 25-1210).
T2 construct: whole, on cells; also called EGFR on NR6W cells; EGFR in NR6W lysate
The assay is described as follows: phage format; assay not given.

Assay [3] addresses T3, EGFR ECD (wild type) (UniProt P00533 25-645, limits assumed).
T3 construct: extracellular domain; the cell lines carry human EGFR; also called wild type EGFR ECD; EGFR extracellular domain
Briefly: SPR, Biacore 3000, EGFR ECD on CM5 chip, VHH at 1.0 µM. The protocol: (§1) The ka, kd, and KD values were determined for the binding of two VHH domains to the ECDs of EGFR and EGFRvIII by surface plasmon resonance (SPR). The ECDs were coupled to BIACORE® CM5 chips and VHH domains were sequentially flowed over each protein in the BIACORE® 3000 (GE Healthcare).
A general note: SPR reads the build-up and loss of mass on a sensor chip optically.

For assay [4], the target named is T3, EGFR ECD (wild type). The assay is described as follows: SPR, Biacore 3000, ECD coupled to CM5 chip. As to the method:
as §1

The target of assay [5] is T4, EGFRvIII ECD (UniProt P00533 25-645).
T4 construct: extracellular domain; Deletion mutant; also called vIII mutant EGFR ECD
Briefly: SPR, Biacore 3000, ECD coupled to CM5 chip. The protocol:
as §1

Assay [6] deals with T2, human EGFR wild type. The assay is described as follows: pull-down from NR6W lysate by His-tagged VHH on a nickel-chelate plate, Western blot with anti-EGFR mAb H11. A general note: A western blot detects proteins with antibodies after separation by electrophoresis.
Protocol: The VHH domains were allowed to bind to the plate wells for 16 hr at 4° C., and then the wells were washed 3 times with Tris-buffered saline containing 0.1% (v/v) TWEEN®-20 (TBST). NR6W lysate (450 μg) made with M-PER reagent (Pierce) plus EDTA-free protease inhibitors (Roche Applied Science) was added to each well and allowed to incubate for 16 hr at 4° C. The lysate was removed, and the wells were washed 15 times with TBST. Protein remaining on the well surface was eluted in SDS-PAGE sample buffer containing 1% (v/v) β-mercaptoethanol and 100 mM imidazole, preheated to 95° C. […] The blot was developed with SuperSignal West™ substrate (Pierce) and exposed to film.
NR6W lysate was added to each well and allowed to incubate for 16 hr at 4° C. The lysate was removed, the wells were washed and remaining protein eluted. Samples were subjected to SDS-PAGE and proteins were transferred to a PVDF membrane that was then probed for EGFR.
Assay [7] concerns the target T2, human EGFR wild type. The assay is described as follows: saturation binding of 125I-labelled VHH122 on an EGFR-expressing cell, specific binding in CPM.
The target in assay [8] is T3, EGFR ECD (wild type). The assay is described as follows: SPR, Biacore 3000, ECD on CM5 chip; summary value. The protocol: as §1
Assay [9] concerns the target T4, EGFRvIII ECD. Briefly: SPR, Biacore 3000, ECD on CM5 chip; summary value. As to the method:
as §1

Assay [10] concerns the target T4, EGFRvIII ECD. The assay is described as follows: SPR, Biacore 3000, EGFRvIII ECD on CM5 chip, VHH at 0.6 µM. The protocol: as §1
Assay [11] deals with T3, EGFR ECD (wild type). The assay is described as follows: SPR, Biacore 3000, EGFR ECD on CM5 chip, VHH at 0.6 µM. The protocol: as §1
Assay [12] addresses T4, EGFRvIII ECD. Briefly: SPR, Biacore 3000, EGFRvIII ECD on CM5 chip, VHH at 1.0 µM. The protocol:
as §1

B1: VHH03 (VHH)
VHH: EVKLQQSGGGLVQPGGSLTLSCVTSGFTFSTYGMDWVRQAPGKGFEWVASISFGGGITNYGDFVKGRFTISRDNAKNTLYLHMNGLKPDDTAVYYCQMGSKRGQGTQVTVSS
On to B1, for which the binding result is listed as “no binding” in [1] and “binds” in assay [2].

B2: VHH205 (VHH)
VHH: QVKLQESGGGLVQSGGSLRLSCIASGSTVSGNTMGWYRQAPGKQRELVAVISSVGVSNVAQSVKGRFAISRDNAKNTVYLQMSSLKPEDTAVYYCNALGTGRANWGQGTQVTVSS
notes: Free VHH used in SPR; not shown: C-terminal 6-His and myc tags from pHEN1-H6
B2: in [3], the Ka was found to be 1.34e+07 M⁻¹, the Kd came out at 74.7 nM, the koff was determined as 0.0115 s⁻¹ and the kon is 154000 M⁻¹ s⁻¹.

B3: RP2 (VHH)
VHH: EVQLQESGGGLVQAGGSLRLSCAASGSTFSNEPFGWYRGAPGKLRELVGTISAGGNTNYVDAVKGRFMISRDNGRRMVYLQMNNLRPDDTAVYYCWNRGYWGQGTQVTVSS
notes: Random library clone used as negative control, as free VHH; also called random VHH domain RP2; control VHH RP2; not shown: C-terminal 6-His and myc tags from pHEN1-H6
Regarding B3, the binding result was “no binding” in assay [4], “no binding” in assay [5] and “no binding (tested: 20 ug VHH per well)” in assay [6].

B4: [125I]VHH122 (VHH)
VHH: EVQLQESGGGLVQAGDSLRLSCLVSGRSFNSYTMGWFRQAPGKEREFVAAILWSGPTTYYADSVKGRFTISRDNAKNTVYLQMNSLKPEDTAVYYCAAALGVLVLAPGNVYSYWGQGTQVTVSS
modifications: 125I label; labelled residues not stated
notes: not shown: C-terminal 6-His and myc tags from pHEN1-H6
In [7], B4 came in with a Kd of 46 nM.

B5: VHH122 (VHH)
VHH: B4 VHH
notes: polyhistidine and myc tagged; also called VH122; not shown: C-terminal 6-His and myc tags from pHEN1-H6
Consider B5, for which the Kd in [8] is approximately 40 nM; in [9], approximately 40 nM; in assay [10], 33.2 nM; in assay [11] it was 38.7 nM; in assay [12], 55 nM; in [3] it was 20.2 nM and 57.8 nM. The Ka is 3.01e+07 M⁻¹ in [10]; 2.58e+07 M⁻¹ in [11]; 1.82e+07 M⁻¹ in assay [12]; 4.95e+07 M⁻¹ and 1.73e+07 M⁻¹ in assay [3]. For the same molecule, the koff in [10] was 0.00304 s⁻¹; in assay [11], 0.00318 s⁻¹; in assay [12], 0.00308 s⁻¹; in assay [3], 0.00207 s⁻¹ and 0.00333 s⁻¹. In addition, the kon was 91300 M⁻¹ s⁻¹ in assay [10]; 82300 M⁻¹ s⁻¹ in assay [11]; 56100 M⁻¹ s⁻¹ in assay [12]; 57600 M⁻¹ s⁻¹ and 102000 M⁻¹ s⁻¹ in assay [3].
